From patent US20130102527A1 come the findings set out here.

pIC50: −log10 of the molar value.

Experiment [1] concerns the target proteasome β2 subunit (trypsin-like site) in human cells and cell extracts (human) (UniProt Q99436). Description: competition with activity-based probe in living HEK-293 cells, 4 h; Tr-L site.
In experiment [2] the target is trypsin-like site (β2 subunit) of 26S proteasomes purified from rabbit muscle (rabbit) (UniProt G1SWK8). Description: cell-based or functional assay.
Chain of trypsin-like site (β2 subunit) of 26S proteasomes purified from rabbit muscle (rabbit) (G1SWK8 entry or part of it): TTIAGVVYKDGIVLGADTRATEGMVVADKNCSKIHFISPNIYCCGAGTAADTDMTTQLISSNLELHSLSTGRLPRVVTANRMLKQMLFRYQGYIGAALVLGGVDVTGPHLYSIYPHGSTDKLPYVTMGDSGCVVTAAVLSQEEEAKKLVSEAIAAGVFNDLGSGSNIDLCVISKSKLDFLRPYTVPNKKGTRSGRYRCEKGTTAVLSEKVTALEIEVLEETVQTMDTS
Experiment [3] addresses chymotrypsin-like site (β5 subunit) of 26S proteasomes purified from rabbit muscle (rabbit) (UniProt G1T4Q9). Description: cell-based or functional assay.
Experiment [4] has as its target caspase-like site (β1 subunit) of yeast 20S proteasome (S. cerevisiae) (UniProt P38624). Description: cell-based or functional assay.
Experiment [5] has as its target proteasome β5 subunit (chymotrypsin-like site) in human cells and cell extracts (human) (UniProt P28074). Description: competition with activity-based probe in living HEK-293 cells, 4 h; Chym-L site.

Chain of proteasome β2 subunit (trypsin-like site) in human cells and cell extracts (human) (Q99436 44-277): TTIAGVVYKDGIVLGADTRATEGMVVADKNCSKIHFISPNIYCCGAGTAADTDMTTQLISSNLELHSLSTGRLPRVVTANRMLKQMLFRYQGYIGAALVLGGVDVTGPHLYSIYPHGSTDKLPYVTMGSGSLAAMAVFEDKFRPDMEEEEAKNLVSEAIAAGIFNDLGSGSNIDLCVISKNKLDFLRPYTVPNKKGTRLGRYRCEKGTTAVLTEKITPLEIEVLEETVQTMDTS
Chain of caspase-like site (β1 subunit) of yeast 20S proteasome (S. cerevisiae) (P38624 20-215): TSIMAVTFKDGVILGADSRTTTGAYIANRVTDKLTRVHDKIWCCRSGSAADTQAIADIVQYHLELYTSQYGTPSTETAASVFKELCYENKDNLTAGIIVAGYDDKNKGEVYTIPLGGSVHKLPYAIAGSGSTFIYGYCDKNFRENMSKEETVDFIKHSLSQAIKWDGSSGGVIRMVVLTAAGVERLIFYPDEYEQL
Chain of chymotrypsin-like site (β5 subunit) of 26S proteasomes purified from rabbit muscle (rabbit) (G1T4Q9 entry or part of it): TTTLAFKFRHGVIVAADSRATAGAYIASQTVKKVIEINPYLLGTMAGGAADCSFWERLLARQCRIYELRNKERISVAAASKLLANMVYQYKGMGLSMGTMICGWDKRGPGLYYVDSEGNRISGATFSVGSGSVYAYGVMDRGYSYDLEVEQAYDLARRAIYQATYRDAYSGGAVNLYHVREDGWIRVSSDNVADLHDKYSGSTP
Chain of proteasome β5 subunit (chymotrypsin-like site) in human cells and cell extracts (human) (P28074 60-263): as the sequence (G1T4Q9 entry or part of it) above, with D197E counted along it

On to “N3-Phe-Phe(4-CH2NH2)-Leu-Phe(4-CH2NH2)-VS (52) (peptide)”, for which the pIC50 – broadly, the negative decadic logarithm of the IC50, by convention in mol/L – in experiment [1] was 4.30; in experiment [5], less than 4.30. Also, the IC50 (µM) for sites: Tr-L in experiment [2] is 0.0066 µM. This substance also returned an IC50 (µM) for sites: Chym-L in experiment [3] of 3.9 µM. Moreover, the inhibition of caspase-like sites of yeast 20S proteasome in experiment [4] was more than 200 µM.
